Measurements reported in article PMC6943196.

Target: Tolypothrix sp. PCC 7601 Orange Carotenoid Protein 1 (OCP1) (Tolypothrix sp. PCC 7601)
Experiment: crystal structure

stoichiometry N: 2
Substance: Tolypothrix sp. PCC 7601 Orange Carotenoid Protein 1 (OCP1) (natural protein)
